Laboratory results from the supplement of paper PMC10567573.

B1: EIF5 (parent)
chain: KQTIGNSCKACGYRGMLDTHHKLC

Variants of: B1
Assay: protein stability index of a GFP-peptide fusion (GPS, HEK-293T) (PSI 1-6); higher = more stable
Conditions: c terminus: a fixed tail appended
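Further: lentivirally expressed fusions sorted by FACS into six bins by GFP to DsRed ratio, PSI derived from sequencing read proportions per bin multiplied by bin number.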

Variant	protein stability index
KQTIFNSCKACGYRGMLDTHHKLC	2.64
KQTITNSCKACGYRGMLDTHHKLC	2.99
KQTIKNSCKACGYRGMLDTHHKLC	3.26
KQTIANSCKACGYRGMLDTHHKLC	3.23
KQTIHNSCKACGYRGMLDTHHKLC	2.96
KQTIDNSCKACGYRGMLDTHHKLC	3.53
KQTIINSCKACGYRGMLDTHHKLC	3.12
KQTIVNSCKACGYRGMLDTHHKLC	3.46
KQTILNSCKACGYRGMLDTHHKLC	2.37
KQTICNSCKACGYRGMLDTHHKLC	3
KQTIGNSCKACGYRGMLDTYHKLC	2.09
KQTIGNSCKACGYRGMLDTLHKLC	2.24
KQTIGNSCKACGYRGMLDTQHKLC	2.5
KQTIGNSCKACGYRGMLDTNHKLC	2.92
KQTIGNSCKACGYRGMLDTAHKLC	2.24
KQTIGNSCKACGYRGMLDTFHKLC	2.07
KQTIGNSCKACGYRGMLDTRHKLC	2.28
KQTIGNSCKACGYRGMLDTTHKLC	1.98
KQTIGNSCKACGYRGMLDTHHKLN	1.91
KQTIGNSCKACGYRGMLDTHHKLI	2.07
KQTIGNSCKACGYRGMLDTHHKLQ	2.22
KQTIGNSCKACGYRGMLDTHHKLD	2.25
KQTIGNSCKACGYRGMLDTHHKLM	2.81
KQTIGNSCKACGYRGMLDTHHKLG	1.63

Variant	protein stability index
KQTIGNSCKACGYRGMLDTHHKLR	1.38
KQTIGNSCKACGYRGMLDTHHKLS	1.89
KRTIGNSCKACGYRGMLDTHHKLC	2.56
KITIGNSCKACGYRGMLDTHHKLC	2.51
KNTIGNSCKACGYRGMLDTHHKLC	3.02
KLTIGNSCKACGYRGMLDTHHKLC	2.61
KMTIGNSCKACGYRGMLDTHHKLC	2.85
KCTIGNSCKACGYRGMLDTHHKLC	3.09
KWTIGNSCKACGYRGMLDTHHKLC	1.93
KATIGNSCKACGYRGMLDTHHKLC	3.48
KTTIGNSCKACGYRGMLDTHHKLC	3.05
KQTIGNSCKARGYRGMLDTHHKLC	1.61
KQTIGNSCKALGYRGMLDTHHKLC	2.28
KQTIGNSCKASGYRGMLDTHHKLC	1.9
KQTIGNSCKAWGYRGMLDTHHKLC	2.06
KQTIGNSCKAPGYRGMLDTHHKLC	1.92
KQTIGNSCKAFGYRGMLDTHHKLC	2.17
KQTIGNSCKATGYRGMLDTHHKLC	1.56
KQTIGNSCKAIGYRGMLDTHHKLC	1.52
KQTIGNSCKADGYRGMLDTHHKLC	1.7
KQTIGNSCKAGGYRGMLDTHHKLC	1.69
KQTIGNSCKACGNRGMLDTHHKLC	3.46
KQTIGNSCKACGTRGMLDTHHKLC	3.19
KQTIGNSCKACGMRGMLDTHHKLC	3.32

Variant	protein stability index
KQTIGNSCKACGIRGMLDTHHKLC	2.16
KQTIGNSCKACGSRGMLDTHHKLC	3.37
KQTIGNSCKACGCRGMLDTHHKLC	3.61
KQTIGNSCKACGHRGMLDTHHKLC	2.77
KQTIGNSCKACGARGMLDTHHKLC	3.7
KQTIGNSCKACGYNGMLDTHHKLC	3.04
KQTIGNSCKACGYHGMLDTHHKLC	3.42
KQTIGNSCKACGYWGMLDTHHKLC	2.12
KQTIGNSCKACGYPGMLDTHHKLC	3.69
KQTIGNSCKACGYYGMLDTHHKLC	2.64
KQTIGNLCKACGYRGMLDTHHKLC	4.11
KQTIGNMCKACGYRGMLDTHHKLC	3.58
KQTIGNTCKACGYRGMLDTHHKLC	3.29
KQTIGNVCKACGYRGMLDTHHKLC	3.72
KQTIGNPCKACGYRGMLDTHHKLC	2.91
KQTIGNYCKACGYRGMLDTHHKLC	4.17
KQTIGNKCKACGYRGMLDTHHKLC	3.93
KQTIGNFCKACGYRGMLDTHHKLC	3.91
KQTIGNCCKACGYRGMLDTHHKLC	3.5
KQTIGNECKACGYRGMLDTHHKLC	3.82
KQTIGNSCYACGYRGMLDTHHKLC	2.61
KQTIGNSCWACGYRGMLDTHHKLC	2.89
KQTIGNSCTACGYRGMLDTHHKLC	3.3
KQTIGNSCFACGYRGMLDTHHKLC	2.16

Variant	protein stability index
KQTIGNSCIACGYRGMLDTHHKLC	2.97
KQTIGNSCQACGYRGMLDTHHKLC	3.11
KQTIGNSCCACGYRGMLDTHHKLC	3.97
KQTIGNSCPACGYRGMLDTHHKLC	4.46
KQTIGNSCKPCGYRGMLDTHHKLC	2.63
KQTIGNSCKLCGYRGMLDTHHKLC	3.3
KQTIGNSCKFCGYRGMLDTHHKLC	4.01
KQTIGNSCKVCGYRGMLDTHHKLC	3.33
KQTIGNSCKDCGYRGMLDTHHKLC	3.68
KQTIGNSCKMCGYRGMLDTHHKLC	3.12
KQTIGNSCKACGYRGMLATHHKLC	2.85
KQTIGNSCKACGYRGMLVTHHKLC	2.39
KQTIGNSCKACGYRGMLTTHHKLC	2.96
KQTIGNSCKACGYRGMLMTHHKLC	2.56
KQTIGNSCKACGYRGMLYTHHKLC	2.09
KQTIGNSCKACGYRGMLNTHHKLC	2.88
KQTIGNSCKACGYRGMLFTHHKLC	2.08
KQTIGNSCKACGYRYMLDTHHKLC	2.59
KQTIGNSCKACGYRWMLDTHHKLC	1.52
KQTIGNSCKACGYRSMLDTHHKLC	2.12
KQTIGNSCKACGYRCMLDTHHKLC	2.44
KQTIGNSCKACGYRRMLDTHHKLC	2.72
